This passage reports cross-linking efficiency results from paper doi:10.1101/495762 (bioRxiv, 2018).

Residue numbers refer to the chain shown, from its start. Numbers in names are those of the source.

Test in all cases: cross-linking
In experiment [1] the target is T1, acetylated Smc3(R1222C) (S. cerevisiae, UniProt P47037 1-1230, R1222C, acetylated, residues not given).
T1 sequence (looked up): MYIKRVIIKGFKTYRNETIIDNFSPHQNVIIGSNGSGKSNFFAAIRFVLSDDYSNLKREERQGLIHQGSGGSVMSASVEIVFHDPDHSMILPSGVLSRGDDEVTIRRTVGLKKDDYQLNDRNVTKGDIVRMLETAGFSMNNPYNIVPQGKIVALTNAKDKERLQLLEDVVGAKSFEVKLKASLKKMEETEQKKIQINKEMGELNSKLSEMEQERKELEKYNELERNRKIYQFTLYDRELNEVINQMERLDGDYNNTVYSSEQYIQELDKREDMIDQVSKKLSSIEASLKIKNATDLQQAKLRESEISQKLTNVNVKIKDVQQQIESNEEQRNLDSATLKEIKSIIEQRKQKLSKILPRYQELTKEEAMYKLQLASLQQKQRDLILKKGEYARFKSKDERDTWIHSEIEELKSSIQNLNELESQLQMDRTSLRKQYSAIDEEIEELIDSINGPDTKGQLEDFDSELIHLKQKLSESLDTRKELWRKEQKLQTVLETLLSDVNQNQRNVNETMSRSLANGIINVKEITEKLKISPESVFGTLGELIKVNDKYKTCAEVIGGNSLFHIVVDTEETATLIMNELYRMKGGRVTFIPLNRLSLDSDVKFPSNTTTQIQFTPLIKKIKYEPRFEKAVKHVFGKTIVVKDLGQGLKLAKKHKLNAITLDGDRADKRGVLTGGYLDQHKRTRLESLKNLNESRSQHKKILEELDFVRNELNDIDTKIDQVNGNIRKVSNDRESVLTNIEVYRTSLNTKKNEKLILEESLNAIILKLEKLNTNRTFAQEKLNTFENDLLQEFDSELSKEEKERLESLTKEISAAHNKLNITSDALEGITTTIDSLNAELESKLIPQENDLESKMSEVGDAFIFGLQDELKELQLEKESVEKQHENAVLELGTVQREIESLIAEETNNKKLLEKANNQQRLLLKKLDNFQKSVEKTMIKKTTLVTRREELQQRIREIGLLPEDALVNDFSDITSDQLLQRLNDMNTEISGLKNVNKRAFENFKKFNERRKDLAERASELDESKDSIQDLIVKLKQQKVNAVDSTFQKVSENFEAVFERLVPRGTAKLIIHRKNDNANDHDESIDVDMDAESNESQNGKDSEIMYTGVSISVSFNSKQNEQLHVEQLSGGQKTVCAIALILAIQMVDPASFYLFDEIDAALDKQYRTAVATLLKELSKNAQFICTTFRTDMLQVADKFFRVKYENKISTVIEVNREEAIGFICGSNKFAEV

For experiment [2], the target named is T2, Smc3(R1222C) (S. cerevisiae, UniProt P47037 1-1230, R1222C).
T2 sequence (looked up): T1 sequence (looked up)

Experiment [3] addresses T3, acetylated Smc3(K160C) (S. cerevisiae, UniProt P47037 1-1230, K160C, acetylated, residues not given).
T3 sequence (looked up): T1 sequence (looked up) with K160C, C1222R

Experiment [4] addresses T4, Smc3(K160C) (S. cerevisiae, UniProt P47037 1-1230, K160C).
T4 sequence (looked up): T1 sequence (looked up) with K160C, C1222R

B1: Smc1(N1192C)-HA6 (natural protein, S. cerevisiae, UniProt P32908 1-1225, looked up)
chain: MGRLVGLELSNFKSYRGVTKVGFGESNFTSIIGPNGSGKSNMMDAISFVLGVRSNHLRSNILKDLIYRGVLNDENSDDYDNEGAASSNPQSAYVKAFYQKGNKLVELMRIISRNGDTSYKIDGKTVSYKDYSIFLENENILIKAKNFLVFQGDVEQIAAQSPVELSRMFEEVSGSIQYKKEYEELKEKIEKLSKSATESIKNRRRIHGELKTYKEGINKNEEYRKQLDKKNELQKFQALWQLYHLEQQKEELTDKLSALNSEISSLKGKINNEMKSLQRSKSSFVKESAVISKQKSKLDYIFKDKEKLVSDLRLIKVPQQAAGKRISHIEKRIESLQKDLQRQKTYVERFETQLKVVTRSKEAFEEEIKQSARNYDKFKLNENDLKTYNCLHEKYLTEGGSILEEKIAVLNNDKREIQEELERFNKRADISKRRITEELSITGEKLDTQLNDLRVSLNEKNALHTERLHELKKLQSDIESANNQEYDLNFKLRETLVKIDDLSANQRETMKERKLRENIAMLKRFFPGVKGLVHDLCHPKKEKYGLAVSTILGKNFDSVIVENLTVAQECIAFLKKQRAGTASFIPLDTIETELPTLSLPDSQDYILSINAIDYEPEYEKAMQYVCGDSIICNTLNIAKDLKWKKGIRGKLVTIEGALIHKAGLMTGGISGDANNRWDKEEYQSLMSLKDKLLIQIDELSNGQRSNSIRAREVENSVSLLNSDIANLRTQVTQQKRSLDENRLEIKYHNDLIEKEIQPKITELKKKLDDLENTKDNLVKEKEALQNNIFKEFTSKIGFTIKEYENHSGELMRQQSKELQQLQKQILTVENKLQFETDRLSTTQRRYEKAQKDLENAQVEMKSLEEQEYAIEMKIGSIESKLEEHKNHLDELQKKFVTKQSELNSSEDILEDMNSNLQVLKRERDGIKEDIEKFDLERVTALKNCKISNINIPISSETTIDDLPISSTDNEAITISNSIDINYKGLPKKYKENNTDSARKELEQKIHEVEEILNELQPNARALERYDEAEGRFEVINNETEQLKAEEKKILNQFLKIKKKRKELFEKTFDYVSDHLDAIYRELTKNPNSNVELAGGNASLTIEDEDEPFNAGIKYHATPPLKRFKDMEYLSGGEKTVAALALLFAINSYQPSPFFVLDEVDAALDITNVQRIAAYIRRHRNPDLQFIVISLKCTMFEKSDALVGVYRQQQENSSKIITLDLSNYAE
Consider B1, for which the results for the cross-linking efficiency in experiment [1] and in experiment [2] were 3% and 41%, respectively.

B2: Smc1(S161C)-HA6 (natural protein, S. cerevisiae, UniProt P32908 1-1225, looked up)
chain: B1 chain with S161C, C1192N
On to B2, for which the figures for the cross-linking efficiency in experiment [3] and in experiment [4] were 37% and 7%, respectively.
